Where two headings read alike, the source gives them in different places.
Assays:
[1] = target: the molecule itself; assay: crystal structure
[2] = target: the molecule itself

| Protein | stoichiometry N [1] | stoichiometry N [2] |
| --- | --- | --- |
| Escherichia coli dGTPase, wild type (enzyme) MAQIDFRKKINWHRRYRSPQGVKTEHEILRIFESDRGRIINSPAIRRLQQKTQVFPLERNAAVRTRLTHSMEVQQVGRYIAKEILSRLKELKLLEAYGLDELTGPFESIVEMSCLMHDIGNPPFGHFGEAAINDWFRQRLHPEDAESQPLTDDRCSVAALRLRDGEEPLNELRRKIRQDLCHFEGNAQGIRLVHTLMRMNLTWAQVGGILKYTRPAWWRGETPETHHYLMKKPGYYLSEEAYIARLRKELNLALYSRFPLTWIMEAADDISYCVADLEDAVEKRIFTVEQLYHHLHEAWGQHEKGSLFSLVVENAWEKSRSNSLSRSTEDQFFMYLRVNTLNKLVPYAAQRFIDNLPAIFAGTFNHALLEDASECSDLLKLYKNVAVKHVFSHPDVERLELQGYRVISGLLEIYRPLLSLSLSDFTELVEKERVKRFPIESRLFHKLSTRHRLAYVEAVSKLPSDSPEFPLWEYYYRCRLLQDYISGMTDLYAWDEYRRLMAVEQ | 6 | – |
| Escherichia coli dGTPase H126A (enzyme) MAQIDFRKKINWHRRYRSPQGVKTEHEILRIFESDRGRIINSPAIRRLQQKTQVFPLERNAAVRTRLTHSMEVQQVGRYIAKEILSRLKELKLLEAYGLDELTGPFESIVEMSCLMHDIGNPPFGAFGEAAINDWFRQRLHPEDAESQPLTDDRCSVAALRLRDGEEPLNELRRKIRQDLCHFEGNAQGIRLVHTLMRMNLTWAQVGGILKYTRPAWWRGETPETHHYLMKKPGYYLSEEAYIARLRKELNLALYSRFPLTWIMEAADDISYCVADLEDAVEKRIFTVEQLYHHLHEAWGQHEKGSLFSLVVENAWEKSRSNSLSRSTEDQFFMYLRVNTLNKLVPYAAQRFIDNLPAIFAGTFNHALLEDASECSDLLKLYKNVAVKHVFSHPDVERLELQGYRVISGLLEIYRPLLSLSLSDFTELVEKERVKRFPIESRLFHKLSTRHRLAYVEAVSKLPSDSPEFPLWEYYYRCRLLQDYISGMTDLYAWDEYRRLMAVEQ | – | 6 |
| Escherichia coli dGTPase E129A (enzyme) MAQIDFRKKINWHRRYRSPQGVKTEHEILRIFESDRGRIINSPAIRRLQQKTQVFPLERNAAVRTRLTHSMEVQQVGRYIAKEILSRLKELKLLEAYGLDELTGPFESIVEMSCLMHDIGNPPFGHFGAAAINDWFRQRLHPEDAESQPLTDDRCSVAALRLRDGEEPLNELRRKIRQDLCHFEGNAQGIRLVHTLMRMNLTWAQVGGILKYTRPAWWRGETPETHHYLMKKPGYYLSEEAYIARLRKELNLALYSRFPLTWIMEAADDISYCVADLEDAVEKRIFTVEQLYHHLHEAWGQHEKGSLFSLVVENAWEKSRSNSLSRSTEDQFFMYLRVNTLNKLVPYAAQRFIDNLPAIFAGTFNHALLEDASECSDLLKLYKNVAVKHVFSHPDVERLELQGYRVISGLLEIYRPLLSLSLSDFTELVEKERVKRFPIESRLFHKLSTRHRLAYVEAVSKLPSDSPEFPLWEYYYRCRLLQDYISGMTDLYAWDEYRRLMAVEQ | – | 6 |
| Escherichia coli dGTPase Y272A (enzyme) MAQIDFRKKINWHRRYRSPQGVKTEHEILRIFESDRGRIINSPAIRRLQQKTQVFPLERNAAVRTRLTHSMEVQQVGRYIAKEILSRLKELKLLEAYGLDELTGPFESIVEMSCLMHDIGNPPFGHFGEAAINDWFRQRLHPEDAESQPLTDDRCSVAALRLRDGEEPLNELRRKIRQDLCHFEGNAQGIRLVHTLMRMNLTWAQVGGILKYTRPAWWRGETPETHHYLMKKPGYYLSEEAYIARLRKELNLALYSRFPLTWIMEAADDISACVADLEDAVEKRIFTVEQLYHHLHEAWGQHEKGSLFSLVVENAWEKSRSNSLSRSTEDQFFMYLRVNTLNKLVPYAAQRFIDNLPAIFAGTFNHALLEDASECSDLLKLYKNVAVKHVFSHPDVERLELQGYRVISGLLEIYRPLLSLSLSDFTELVEKERVKRFPIESRLFHKLSTRHRLAYVEAVSKLPSDSPEFPLWEYYYRCRLLQDYISGMTDLYAWDEYRRLMAVEQ | – | 6 |

Reference: PMC6511015 (Proceedings of the National Academy of Sciences of the …, 2019)
